# Results taken from patent US20150017095A1 (AbbVie / Abbott, published 2015).
# T1: Recombinant Human IL-6 sR (human, UniProt P08887 20-358)
# T1 construct: domain: IL-6 sR; Bought reagent; also called IL-6R
# T1 sequence (looked up): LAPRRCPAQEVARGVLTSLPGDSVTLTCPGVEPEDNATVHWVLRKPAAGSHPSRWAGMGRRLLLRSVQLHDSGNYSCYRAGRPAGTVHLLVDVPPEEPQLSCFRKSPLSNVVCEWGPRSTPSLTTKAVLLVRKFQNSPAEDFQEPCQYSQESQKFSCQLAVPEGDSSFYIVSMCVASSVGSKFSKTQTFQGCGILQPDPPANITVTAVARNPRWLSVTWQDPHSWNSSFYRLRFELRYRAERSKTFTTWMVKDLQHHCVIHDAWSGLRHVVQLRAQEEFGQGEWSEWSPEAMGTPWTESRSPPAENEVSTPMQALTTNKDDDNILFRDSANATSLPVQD
# B1: DVD157 (PGE2 / IL-1b DVD-Ig) (bispecific antibody)
# VH: EVQLVQSGAEVKKPGASVKVSCKASGYTFTKYWLGWVRQAPGQGLEWMGDIYPGYDYTHYNEKFKDRVTLTTDTSTSTAYMELRSLRSDDTAVYYCARSDGSSTYWGQGTLVTVSSASTKGPQVQLVESGGGVVQPGRSLRLSCAASGFTFSVYGMNWVRQAPGKGLEWVAIIWYDGDNQYYADSVKGRFTISRDNSKNTLYLQMNGLRAEDTAVYYCARDLRTGPFDYWGQGTLVTVSS
# VL: DVLMTQTPLSLPVTPGEPASISCTSSQNIVHSNGNTYLEWYLQKPGQSPQLLIYKVSNRFSGVPDRFSGSGSGTDFTLKISRVEAEDVGVYYCFQVSHVPYTFGGGTKVEIKRTVAAPEIVLTQSPDFQSVTPKEKVTITCRASQSIGSSLHWYQQKPDQSPKLLIKYASQSFSGVPSRFSGSGSGTDFTLTINSLEAEDAAAYYCHQSSSLPFTFGPGTKVDIKR
# notes: Outer domain is AB048 (PGE2), inner domain is AB032 (IL-1b); also called VD157H; VD157L
# B2: DVD156 (IL-17A / PGE2 DVD-Ig) (bispecific antibody)
# VH: EVQLVESGGGLVQPGGSLRLSCAASGFTFSNYWMNWVRQAPGKGLEWVAAINQDGSEKYYVGSVKGRFTISRDNAKNSLYLQMNSLRVEDTAVYYCVRDYYDILTDYYIHYWYFDLWGRGTLVTVSSASTKGPEVQLVQSGAEVKKPGASVKVSCKASGYTFTKYWLGWVRQAPGQGLEWMGDIYPGYDYTHYNEKFKDRVTLTTDTSTSTAYMELRSLRSDDTAVYYCARSDGSSTYWGQGTLVTVSS
# VL: not shown
# notes: Outer domain is AB029 (IL-17A), inner domain is AB048 (PGE2); also called VD156H; VD156L
# B3: DVD152 (IL-6R / PGE2 DVD-Ig) (bispecific antibody)
# VH: EVQLQESGPGLVRPSQTLSLTCTVSGYSITSDHAWSWVRQPPGRGLEWIGYISYSGITTYNPSLKSRVTMLRDTSKNQFSLRLSSVTAADTAVYYCARSLARTTAMDYWGQGSLVTVSSASTKGPEVQLVQSGAEVKKPGASVKVSCKASGYTFTKYWLGWVRQAPGQGLEWMGDIYPGYDYTHYNEKFKDRVTLTTDTSTSTAYMELRSLRSDDTAVYYCARSDGSSTYWGQGTLVTVSS
# VL: DIQMTQSPSSLSASVGDRVTITCRASQDISSYLNWYQQKPGKAPKLLIYYTSRLHSGVPSRFSGSGSGTDFTFTISSLQPEDIATYYCQQGNTLPYTFGQGTKVEIKRTVAAPDVLMTQTPLSLPVTPGEPASISCTSSQNIVHSNGNTYLEWYLQKPGQSPQLLIYKVSNRFSGVPDRFSGSGSGTDFTLKISRVEAEDVGVYYCFQVSHVPYTFGGGTKVEIKR
# notes: Outer domain is AB054 (IL-6R), inner domain is AB048 (PGE2); also called VD152H; VD152L
# What was measured:
# Recombinant Human IL-1β [1] = target: T2, Recombinant Human IL-1β (human, UniProt P01584 117-269); test: cell-based or functional assay
# Recombinant Human IL-1β [2] = target: T2, Recombinant Human IL-1β; test: direct bind ELISA, antigen coated on plate (C-terminal VD)
# Description: (§1) Enzyme Linked Immunosorbent Assays to screen for antibodies that bind a desired target antigen were performed as follows. High bind ELISA plates (Corning Costar #3369, Acton, Mass.) were coated with 100 μL/well of 10 μg/ml of desired target antigen (R&D Systems, Minneapolis, Minn.) or desired target antigen extra-cellular domain/FC fusion protein (R&D Systems, Minneapolis, Minn.) or monoclonal mouse anti-polyHistidine antibody (R&D Systems # MAB050, Minneapolis, Minn.) in phosphate buffered saline (10×PBS, Abbott Bioresearch Center, Media Prep# MPS-073, Worcester, Mass.) overnight at 4° C. Plates were washed four times with PBS containing 0.02% Tween 20. Plates were blocked by the addition of 300 μL/well blocking solution (non-fat dry milk powder, various retail suppliers, diluted to 2% in PBS) for ½ hour at room temperature. Plates were washed four times after blocking with PBS containing 0.02% Tween 20.
# (§2) Plates were washed 4 times with PBS containing 0.02% Tween 20.
# (§3) One hundred microliters of enhanced TMB solution (Neogen Corp. #308177, K Blue, Lexington, Ky.) was added to each well and incubated for 10 minutes at room temperature. The reaction was stopped by the addition of 50 μL 1N sulphuric acid.
# Recombinant Human IL-17 [3] = target: T3, Recombinant Human IL-17 (human, UniProt Q16552 20-155, limits assumed); test: cell-based or functional assay
# T3 sequence (Q16552 20-155 limits assumed): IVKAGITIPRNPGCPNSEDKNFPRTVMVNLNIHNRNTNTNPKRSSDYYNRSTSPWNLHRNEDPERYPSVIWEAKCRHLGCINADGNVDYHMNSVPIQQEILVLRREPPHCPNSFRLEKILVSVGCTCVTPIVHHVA
# Recombinant Human IL-17 [4] = target: T3, Recombinant Human IL-17; test: direct bind ELISA, antigen coated on plate (N-terminal VD)
# Description: as §1, §2, §3
# Recombinant Human IL-17 [5] = target: T3, Recombinant Human IL-17; test: BIACORE SPR, DVD-Ig captured, antigen in flow (N-terminal VD)
# Description: (§4) The BIACORE assay (Biacore, Inc, Piscataway, N.J.) determines the affinity of antibodies or DVD-Ig with kinetic measurements of on-rate and off-rate constants. […] All chemicals are obtained from Biacore® AB (Uppsala, Sweden) or otherwise from a different source as described in the text. For example, approximately 5000 RU of goat anti-mouse IgG, (Fcγ), fragment specific polyclonal antibody (Pierce Biotechnology Inc, Rockford, Ill.) diluted in 10 mM sodium acetate (pH 4.5) is directly immobilized across a CM5 research grade biosensor chip using a standard amine coupling kit according to manufacturer's instructions and procedures at 25 μg/ml. Unreacted moieties on the biosensor surface are blocked with ethanolamine. Modified carboxymethyl dextran surface in flowcell 2 and 4 is used as a reaction surface. Unmodified carboxymethyl dextran without goat anti-mouse IgG in flow cell 1 and 3 is used as the reference surface. For kinetic analysis, rate equations derived from the 1:1 Langmuir binding model are fitted simultaneously to association and dissociation phases of all eight injections (using global fit analysis) with the use of Biaevaluation 4.0.1 software. Purified antibodies or DVD-Ig are diluted in HEPES-buffered saline for capture across goat anti-mouse IgG specific reaction surfaces. Antibodies or DVD-Ig to be captured as a ligand (25 μg/m) are injected over reaction matrices at a flow rate of 5 μl/min. The association and dissociation rate constants, kₒₙ (M⁻¹s⁻¹) and koff (s⁻¹) are determined under a continuous flow rate of 25 μl/min. Rate constants are derived by making kinetic binding measurements at different antigen concentrations ranging from 10-200 nM. The equilibrium dissociation constant (M) of the reaction between antibodies or DVD-Igs and the target antigen is then calculated from the kinetic rate constants by the following formula: KD=koff/kₒₙ. Binding is recorded as a function of time and kinetic rate constants are calculated.
# [6] = target: T1, Recombinant Human IL-6 sR; test: direct bind ELISA, antigen coated on plate (N-terminal VD)
# Description: as §1, §2, §3
# [7] = target: T1, Recombinant Human IL-6 sR; test: BIACORE SPR, DVD-Ig captured, antigen in flow (N-terminal VD)
# Description: as §4
binder,measurement,setting,value
B1,C-terminal VD IL-1β Neutralization Assay EC50 nM (IL-8 release by MRC5 cells),Recombinant Human IL-1β [1],3.22 nM
same,EC50,Recombinant Human IL-1β [2],2480 nM
B2,N-terminal VD IL-17 Neutralization Assay EC50 nM (IL-6 secretion by HS27 cells),Recombinant Human IL-17 [3],0.2 nM
same,EC50,Recombinant Human IL-17 [4],0.62 nM
same,Kd,Recombinant Human IL-17 [5],≤ 0.0115 nM
same,koff,Recombinant Human IL-17 [5],< 1e-06 s⁻¹
same,kon,Recombinant Human IL-17 [5],86800 M⁻¹ s⁻¹
B3,EC50,[6],1.62 nM
same,Kd,[7],0.275 nM
same,koff,[7],0.000115 s⁻¹
same,kon,[7],420000 M⁻¹ s⁻¹
